Assay results from paper PMC9380774, “Mpe1 senses the binding of pre-mRNA and controls 3′ end processing by CPF” (Molecular Cell, 2022).

T1: Cft1 (S. cerevisiae, UniProt Q06632 1-1357)
T1 construct: Cft1, S. cerevisiae, subunit of the polymerase module of CPF; E. coli codon-optimized gene (GeneArt); source: Sf9, baculovirus, co-expressed with Mpe1-SII, in lysate; also as subunit of the purified polymerase module (Sf9)
T1 sequence: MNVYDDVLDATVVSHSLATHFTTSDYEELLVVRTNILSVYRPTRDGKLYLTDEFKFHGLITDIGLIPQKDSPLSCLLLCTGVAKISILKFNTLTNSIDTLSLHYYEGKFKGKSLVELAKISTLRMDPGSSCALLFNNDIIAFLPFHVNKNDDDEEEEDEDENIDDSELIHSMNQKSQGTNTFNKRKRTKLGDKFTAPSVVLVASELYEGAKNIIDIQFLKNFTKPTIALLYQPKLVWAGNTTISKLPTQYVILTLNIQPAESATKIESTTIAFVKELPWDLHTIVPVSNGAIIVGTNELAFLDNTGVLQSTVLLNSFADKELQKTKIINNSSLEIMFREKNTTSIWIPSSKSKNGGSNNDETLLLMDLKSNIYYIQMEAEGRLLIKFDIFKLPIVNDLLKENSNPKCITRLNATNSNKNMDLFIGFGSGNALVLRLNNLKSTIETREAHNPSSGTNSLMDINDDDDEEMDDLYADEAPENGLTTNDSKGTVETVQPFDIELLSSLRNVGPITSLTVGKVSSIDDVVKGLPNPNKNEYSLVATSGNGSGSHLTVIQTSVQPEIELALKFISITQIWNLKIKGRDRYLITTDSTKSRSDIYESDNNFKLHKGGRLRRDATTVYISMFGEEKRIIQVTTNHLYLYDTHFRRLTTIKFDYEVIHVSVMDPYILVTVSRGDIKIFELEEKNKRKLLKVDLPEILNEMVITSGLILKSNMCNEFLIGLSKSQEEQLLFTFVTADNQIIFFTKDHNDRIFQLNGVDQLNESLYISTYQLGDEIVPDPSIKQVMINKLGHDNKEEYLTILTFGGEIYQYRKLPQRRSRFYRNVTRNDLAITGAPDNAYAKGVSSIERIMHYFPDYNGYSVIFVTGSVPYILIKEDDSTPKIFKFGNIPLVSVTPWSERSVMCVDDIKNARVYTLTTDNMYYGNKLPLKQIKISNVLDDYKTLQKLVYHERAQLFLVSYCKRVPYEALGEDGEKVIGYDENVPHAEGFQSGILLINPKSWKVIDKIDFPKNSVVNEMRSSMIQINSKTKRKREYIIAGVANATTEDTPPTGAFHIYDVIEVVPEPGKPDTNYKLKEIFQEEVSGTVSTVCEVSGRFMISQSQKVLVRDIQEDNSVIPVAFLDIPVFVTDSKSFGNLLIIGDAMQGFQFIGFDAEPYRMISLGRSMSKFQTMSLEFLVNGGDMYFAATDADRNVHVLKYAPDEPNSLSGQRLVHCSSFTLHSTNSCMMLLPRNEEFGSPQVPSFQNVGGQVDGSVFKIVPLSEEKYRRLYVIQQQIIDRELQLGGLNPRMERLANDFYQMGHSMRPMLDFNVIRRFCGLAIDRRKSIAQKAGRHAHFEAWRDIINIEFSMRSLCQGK

B1: StrepII-tagged Mpe1 (Mpe1-SII) (natural protein, S. cerevisiae)
chain: MSSTIFYRFKSQRNTSRILFDGTGLTVFDLKREIIQENKLGDGTDFQLKIYNPDTEEEYDDDAFVIPRSTSVIVKRSPAIKSFSVHSRLKGNVGAAALGNATRYVTGRPRVLQKRQHTATTTANVSGTTEEERIASMFATQENQWEQTQEEMSAATPVFFKSQTNKNSAQENEGPPPPGYMCYRCGGRDHWIKNCPTNSDPNFEGKRIRRTTGIPKKFLKSIEIDPETMTPEEMAQRKIMITDEGKFVVQVEDKQSWEDYQRKRENRQIDGDETIWRKGHFKDLPDDLKCPLTGGLLRQPVKTSKCCNIDFSKEALENALVESDFVCPNCETRDILLDSLVPDQDKEKEVETFLKKQEELHGSSKDGNQPETKKMKLMDPTGTAGLNNNTSLPTSVNNGGTPVPPVPLPFGIPPFPMFPMPFMPPTATITNPHQADASPKK
notes: Mpe1, S. cerevisiae, subunit of the nuclease module of CPF; no cleavage is told; also called WT Mpe1; Mpe1-3C-SII; source: Sf9, baculovirus; in lysate, and purified (Strep-Tactin, MonoQ)
B2: Yth1 (natural protein, S. cerevisiae)
chain: MSLIHPDTAKYPFKFEPFLRQEYSFSLDPDRPICEFYNSREGPKSCPRGPLCPKKHVLPIFQNKIVCRHWLRGLCKKNDQCEYLHEYNLRKMPECVFFSKNGYCTQSPDCQYLHIDPASKIPKCENYEMGFCPLGSSCPRRHIKKVFCQRYMTGFCPLGKDECDMEHPQFIIPDEGSKLRIKRDDEINTRKMDEEKERRLNAIINGEV
notes: Yth1, S. cerevisiae, subunit of the polymerase module of CPF; E. coli codon-optimized gene (GeneArt); source: Sf9, baculovirus, co-expressed with Mpe1-SII, in lysate; also as subunit of the purified polymerase module (Sf9)
B3: Cft2(S), residues 1-720 (domain or fragment, S. cerevisiae, UniProt Q12102 1-720, looked up)
chain: MTYKYNCCDDGSGTTVGSVVRFDNVTLLIDPGWNPSKVSYEQCIKYWEKVIPEIDVIILSQPTIECLGAHSLLYYNFTSHFISRIQVYATLPVINLGRVSTIDSYASAGVIGPYDTNKLDLEDIEISFDHIVPLKYSQLVDLRSRYDGLTLLAYNAGVCPGGSIWCISTYSEKLVYAKRWNHTRDNILNAASILDATGKPLSTLMRPSAIITTLDRFGSSQPFKKRSKIFKDTLKKGLSSDGSVIIPVDMSGKFLDLFTQVHELLFESTKINAHTQVPVLILSYARGRTLTYAKSMLEWLSPSLLKTWENRNNTSPFEIGSRIKIIAPNELSKYPGSKICFVSEVGALINEVIIKVGNSEKTTLILTKPSFECASSLDKILEIVEQDERNWKTFPEDGKSFLCDNYISIDTIKEEPLSKEETEAFKVQLKEKKRDRNKKILLVKRESKKLANGNAIIDDTNGERAMRNQDILVENVNGVPPIDHIMGGDEDDDEEEENDNLLNLLKDNSEKSAAKKNTEVPVDIIIQPSAASKHKMFPFNPAKIKKDDYGTVVDFTMFLPDDSDNVNQNSRKRPLKDGAKTTSPVNEEDNKNEEEDGYNMSDPISKRSKHRASRYSGFSGTGEAENFDNLDYLKIDKTLSKRTISTVNVQLKCSVVILNLQSLVDQRSASIIWPSLKSRKIVLSAPKQIQNEEITAKLIKKNIEVVNMPLNKIVEFSTTI
notes: Cft2, S. cerevisiae, residues 1-720, lacks the disordered C-terminal region; also called Cft2(short); truncated version of Cft2; source: E. coli BL21 Star (DE3), purified (Ni-NTA, 3C cleavage, MonoQ, Superdex 200)
B4: Pfs2 (natural protein, S. cerevisiae)
chain: MDGHNQNQYQNQNQIQQSQQPPLKKYVTQRRSVDVSSPYINLYYNRRHGLPNLVVEPETSYTIDIMPPNAYRGRDRVINLPSKFTHLSSNKVKHVIPAIQWTPEGRRLVVATYSGEFSLWNASSFTFETLMQAHDSAVTTMKYSHDSDWMISGDADGMIKIWQPNFSMVKEIDAAHTESIRDMAFSSNDSKFVTCSDDNILKIWNFSNGKQERVLSGHHWDVKSCDWHPEMGLIASASKDNLVKLWDPRSGNCISSILKFKHTVLKTRFQPTKGNLLMAISKDKSCRVFDIRYSMKELMCVRDETDYMTLEWHPINESMFTLACYDGSLKHFDLLQNLNEPILTIPYAHDKCITSLSYNPVGHIFATAAKDRTIRFWTRARPIDPNAYDDPTYNNKKINGWFFGINNDINAVREKSEFGAAPPPPATLEPHALPNMNGFINKKPRQEIPGIDSNIKSSTLPGLSI
notes: Pfs2, S. cerevisiae, subunit of the polymerase module of CPF; E. coli codon-optimized gene (GeneArt); source: Sf9, baculovirus, co-expressed with Mpe1-SII, in lysate; also as subunit of the purified polymerase module (Sf9)
B5: Cft2 (untagged, co-expressed with the polymerase module) (natural protein, S. cerevisiae, UniProt Q12102 1-859, looked up)
chain: MTYKYNCCDDGSGTTVGSVVRFDNVTLLIDPGWNPSKVSYEQCIKYWEKVIPEIDVIILSQPTIECLGAHSLLYYNFTSHFISRIQVYATLPVINLGRVSTIDSYASAGVIGPYDTNKLDLEDIEISFDHIVPLKYSQLVDLRSRYDGLTLLAYNAGVCPGGSIWCISTYSEKLVYAKRWNHTRDNILNAASILDATGKPLSTLMRPSAIITTLDRFGSSQPFKKRSKIFKDTLKKGLSSDGSVIIPVDMSGKFLDLFTQVHELLFESTKINAHTQVPVLILSYARGRTLTYAKSMLEWLSPSLLKTWENRNNTSPFEIGSRIKIIAPNELSKYPGSKICFVSEVGALINEVIIKVGNSEKTTLILTKPSFECASSLDKILEIVEQDERNWKTFPEDGKSFLCDNYISIDTIKEEPLSKEETEAFKVQLKEKKRDRNKKILLVKRESKKLANGNAIIDDTNGERAMRNQDILVENVNGVPPIDHIMGGDEDDDEEEENDNLLNLLKDNSEKSAAKKNTEVPVDIIIQPSAASKHKMFPFNPAKIKKDDYGTVVDFTMFLPDDSDNVNQNSRKRPLKDGAKTTSPVNEEDNKNEEEDGYNMSDPISKRSKHRASRYSGFSGTGEAENFDNLDYLKIDKTLSKRTISTVNVQLKCSVVILNLQSLVDQRSASIIWPSLKSRKIVLSAPKQIQNEEITAKLIKKNIEVVNMPLNKIVEFSTTIKTLDISIDSNLDNLLKWQRISDSYTVATVVGRLVKESLPQVNNHQKTASRSKLVLKPLHGSSRSHKTGALSIGDVRLAQLKKLLTEKNYIAEFKGEGTLVINEKVAVRKINDAETIIDGTPSELFDTVKKLVTDMLAKI
notes: Cft2, S. cerevisiae, pseudo-nuclease subunit of the nuclease module of CPF; source: Sf9, co-infected with viruses for the polymerase module (Pfs2-SII) and Ysh1-Cft2; in lysate, and co-purified with the polymerase module (Strep-Tactin, MonoQ)

Assays:
[1] = target: T2, S. cerevisiae polymerase module with an SII tag on Pfs2 (S. cerevisiae, UniProt Q06632 1-1357; P29468 1-568; P42841 1-465; P45976 1-327; Q06102 2-208); test: SEC; analytical, Superose 6 Increase 3.2/300, SEC 50 buffer (20 mM HEPES pH 8, 50 mM NaCl, 0.5 mM TCEP); 5 μM polymerase module or polymerase module-Cft2 complex, 15 μM Mpe1 or variant, 10 μM Cft2(S) or 720 μM yPIM peptide; with or without 10 μM precleaved CYC1 RNA; details: both partners purified
T2 construct: Cft1, S. cerevisiae; Pap1, S. cerevisiae; Pfs2, S. cerevisiae; Fip1, S. cerevisiae; Yth1, S. cerevisiae; That Construct B is the plasmid of this co-infection is surmised from the SII tag on Pfs2; also called Construct B (Cft1-Pap1-Pfs2-SII-Fip1-Yth1); source: Sf9, co-infected with a virus for untagged Cft2 and Ysh1; in lysate, and purified with Cft2 (Strep-Tactin, MonoQ); copies: + + + +

Cft2(S), residues 1-720 [2] = target: B3; test: cross-linking; polymerase module-Cft2(S)-Mpe1-RNA complex (0.5 mg/ml) with 2 mM sulfo-SDA for 2 h on ice, UV 365 nm for 15 min; 20 mM HEPES, 50 mM NaCl, 0.5 mM TCEP, pH 8.0; mass spectrometry, 1 % FDR on link level; details: both partners purified
Cft1 = target: T1, Cft1; test: cryo-EM structure; sample of polymerase module, Mpe1, Cft2(S) and precleaved CYC1 RNA; only the polymerase module and the yPIM of Cft2 are seen in the map; details: both partners purified
Cft2(S), residues 1-720 [3] = target: B3; test: as above; details: both partners purified
[4] = target: T2, S. cerevisiae polymerase module with an …; test: pull-down; Sf9 cells co-infected with viruses for the polymerase module (SII on Pfs2) and for untagged Cft2 and Ysh1; Strep-Tactin in Buffer A, then MonoQ; details: partners not purified

T2 sequence (P29468 whole entry, chain 2 of 2): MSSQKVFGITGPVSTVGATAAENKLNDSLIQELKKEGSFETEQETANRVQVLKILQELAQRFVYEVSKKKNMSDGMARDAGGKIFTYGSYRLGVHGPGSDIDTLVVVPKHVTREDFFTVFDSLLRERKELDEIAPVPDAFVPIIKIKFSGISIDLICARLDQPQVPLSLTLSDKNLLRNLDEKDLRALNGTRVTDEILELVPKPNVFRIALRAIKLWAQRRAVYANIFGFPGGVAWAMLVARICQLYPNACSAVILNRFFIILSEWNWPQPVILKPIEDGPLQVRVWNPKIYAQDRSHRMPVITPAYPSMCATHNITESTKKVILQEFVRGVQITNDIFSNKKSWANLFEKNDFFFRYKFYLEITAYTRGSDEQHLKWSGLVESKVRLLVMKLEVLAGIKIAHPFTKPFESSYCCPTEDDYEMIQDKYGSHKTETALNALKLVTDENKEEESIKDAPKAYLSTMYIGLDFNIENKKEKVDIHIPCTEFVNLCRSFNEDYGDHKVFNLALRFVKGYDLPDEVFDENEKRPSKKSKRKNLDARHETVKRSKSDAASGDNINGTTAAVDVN
T2 sequence (P45976 whole entry, chain 4 of 2): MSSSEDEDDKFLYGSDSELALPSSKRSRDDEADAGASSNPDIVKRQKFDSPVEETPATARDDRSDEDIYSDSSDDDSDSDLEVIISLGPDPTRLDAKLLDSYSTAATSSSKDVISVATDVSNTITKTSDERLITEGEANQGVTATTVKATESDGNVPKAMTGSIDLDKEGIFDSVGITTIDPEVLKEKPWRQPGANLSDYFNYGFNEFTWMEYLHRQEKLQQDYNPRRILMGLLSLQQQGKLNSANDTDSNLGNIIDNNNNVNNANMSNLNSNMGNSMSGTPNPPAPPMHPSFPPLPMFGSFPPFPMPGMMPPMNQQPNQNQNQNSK

B1
binding result [1]: binds

B2
binding result (Cft2(S), residues 1-720 [2]): binds

B3
binding result (Cft1): binds

B4
binding result (Cft2(S), residues 1-720 [3]): binds

B5
binding result [4]: binds
